The record followed here is the DeepSol protein solubility set.

The nature of the series: soluble on expression in E. coli; label from the status in PepcDB or PDB records.
Consider “NTITVSELLELIKKEDVIIVDTRSPREFKEETLPGAINIPLFLDDEHALIGKTYKQESREKAIEIATDIVEKSLKRILNEAKKLDRDKLIVVFCARGGMRSQTMALILQLLGFKVKRLIGGFKAFKHAVDK”, for which the “soluble on expression in E. coli” value was “not soluble”.
As for “MNKKHYLLYGSERYALAILRPLQAAIRARGDEAAWFFDGPGAEDLAADEQLLSVAQVRLWKPYAVITSSNAVPHFFPGVKVEVFHGFNAGKPRHVYSRGFFDLYCTTGPRDTAAFGELADRLGHFAVKQTGWPKIDPFMGEMSQALVPVRQPPVILYHSTFSPSWSAADILYDEIKRLSLRGEWRWIVTFHPKMNPDVVARYRALQSEHLCFSDNDNILELFPHVDMMCSDTSSALNEFLLTCKPVVTFKNRNPGPQLIDIDDPAQFESAIRRALSRPPELLSAIRAYADAIHPYWDGRSSERVLEAIDAFVAEGGRNRRTKPLNLWRKFKLRKRIGYWGPAWL”, the “soluble on expression in E. coli” value is “not soluble”.
In the case of “MGSDKIHHHHHHMIRVLSVFGTRPEAIKMAPLVKKLEEEQNVESLVCVTAQHRQMLDQVLEVFDIKPDFDLNIMKERQNLSDITVNALSGLYDLIGELKPDIVLVQGDTTTTFAGALAAFYHRIPVGHVEAGLRTNDRYSPFPEEINRRLTGVLSTLHFAPTKRNRENLLKENVMGKIYVTGNTVIDALRYTVKENHVFEDPILRNMDFSDGRYILLTSHRRENIGKPLENICRAVRRIVEGFEDVKVIYPVHMNPAVREIVFPMLENVERVFLIDPVNVIDMHNLMARSYLIMTDSGGIQEEAPALGKPVIVLRKETERPEAIEAGVAVLGGVEEERIFELAKKLLVDREEYEKMAKAVNPFGDGRASERIVKAILHEFGLSDPPEEFC” it was “not soluble”; in that of “QGHMRATNVTYQAHHVSRNKRGQVVGTRGGFRGCTIWLTGLSGAGKTTVSMALEEYLVCHGIPCYTLDGDNIRQGLNKNLGFSPEDREENVRRIAEVAKLFADAGLVCITSFISPYTQDRNNARQIHEGASLPFFEVFVDAPLHVCEQRDVKGLYKKARAGEIKGFTGIDSEYEKPEAPELVLKTDSCDVNDCVQQVVELLNERDILP”, “soluble”; in that of “MSLTQETALGAALKSAVQTMSKKKQTEMIADHIYGKYDVFKRFKPLALGIDQDLIAALPQYDAALIARVLANHCRRPRYLKALARGGKRFDLNNRFKGEVTPEEQAIAQNHPFVQQALQQQSAQAAAETLSVEAEAAESSAAEEGGSHHHHHH”, “soluble”.
In the case of “SPEALRIGYQKGSIGMVLAKSHQLLEKRYPESKISWVEFPAGPQMLEALNVGSIDLGSTGDIPPIFAQAAGADLVYVGVEPPKPKAEVILVAENSPIKTVADLKGHKVAFQKGSSSHNLLLRALRQAGLKFTDIQPTYLTPADARAAFQQGNVDAWAIWDPYYSAALLQGGVRVLKDGTDLNQTGSFYLAARPYAEKNGAFIQGVLATFSEADALTRSQREQSIALLAKTMGLPAPVIASYLDHRPPTTIKPVNAEVAALQQQTADLFYENRLVPKKVDIRQRIWQPTQLEGKQLEFRVPGNENLYFQ” it was “soluble”.
In the case of “MIKSALLVLEDGTQFHGRAIGATGSAVGEVVFNTSMTGYQEILTDPSYSRQIVTLTYPHIGNVGTNDADEESSQVHAQGLVIRDLPLIASNFRNTEDLSSYLKRHNIVAIADIDTRKLTRLLREKGAQNGCIIAGDNPDAALALEKARAFPGLNGMDLAKEVTTAEAYSWTQGSWTLTGGLPEAKKEDELPFHVVAYDFGAKRNILRMLVDRGCRLTIVPAQTSAEDVLKMNPDGIFLSNGPGDPAPDDYAITAIQKFLETDIPVFGICLGHQLLALASGAKTVKMKFGHHGGNHPVKDVEKNVVMITAQNHGFAVDEATLPANLRVTHKSLFDGTLQGIHRTDKPAFSFQGHPEASPGPHDAAPLFDHFIELIEQYRKTAK” it was “soluble”.
In the case of “MAHHHHHHMMSSASLLEKVPQPWAALVRPFLQRSHEFEDKEPLVAYYLRTHVAFLCMRQRSKEDKDGTAFLMTLLDALEASKARLGAQLQGIDGRTVLTKFALMLFARADDAERTGNASMAIVRLFYTASVLFEATAQFTDDGAMDAVAAQKSKYAKYIATRMKKALDKNEPYVSPNKLETADDDAAGGVGGVNGAGPATTFTTAPASCFMRPTSQPTSVSNRAPAPTTAHENLPALPYAPPPVTQKLDTPPPPPHTPDADTQGRSKTPVHPSPMKNTYAPPQPQHTSQQQQWLSTSSAVPSLPPTPSSAQQRYAAPSSAGGGVGATGFKPSVDQMIDAQKLASQAVSALQFYDYENAKQQLVASLRVLNGVQ”, the “soluble on expression in E. coli” value is listed as “soluble”.
